Data as given in IntAct's records for PubMed 12502741.

B1: Retinoblastoma-associated protein (Homo sapiens), P06400 (parent)
chain: MPPKTPRKTAATAAAAAAEPPAPPPPPPPEEDPEQDSGPEDLPLVRLEFEETEEPDFTALCQKLKIPDHVRERAWLTWEKVSSVDGVLGGYIQKKKELWGICIFIAAVDLDEMSFTFTELQKNIEISVHKFFNLLKEIDTSTKVDNAMSRLLKKYDVLFALFSKLERTCELIYLTQPSSSISTEINSALVLKVSWITFLLAKGEVLQMEDDLVISFQLMLCVLDYFIKLSPPMLLKEPYKTAVIPINGSPRTPRRGQNRSARIAKQLENDTRIIEVLCKEHECNIDEVKNVYFKNFIPFMNSLGLVTSNGLPEVENLSKRYEEIYLKNKDLDARLFLDHDKTLQTDSIDSFETQRTPRKSNLDEEVNVIPPHTPVRTVMNTIQQLMMILNSASDQPSENLISYFNNCTVNPKESILKRVKDIGYIFKEKFAKAVGQGCVEIGSQRYKLGVRLYYRVMESMLKSEEERLSIQNFSKLLNDNIFHMSLLACALEVVMATYSRSTSQNLDSGTDLSFPWILNVLNLKAFDFYKVIESFIKAEGNLTREMIKHLERCEHRIMESLAWLSDSPLFDLIKQSKDREGPTDHLESACPLNLPLQNNHTAADMYLSPVRSPKKKGSTTRVNSTANAETQATSAFQTQKPLKSTSLSLFYKKVYRLAYLRLNTLCERLLSEHPELEHIIWTLFQHTLQNEYELMRDRHLDQIMMCSMYGICKVKNIDLKFKIIVTAYKDLPHAVQETFKRVLIKEEEYDSIIVFYNSVFMQRLKTNILQYASTRPPTLSPIPHIPRSPYKFPSSPLRIPGGNIYISPLKSPYKISEGLPTPTKMTPRSRILVSIGESFGTSEKFQKINQMVCNSDRVLKRSAEGSNPPKPLKKLRFDIEGSDEADGSKHLPGESKFQQKLAEMTSTRTRMQKQKMNDSMDTSNKEEK

Variants of: B1
Settings: with e2f1_human E2F1, Q01094
Sequence of e2f1_human E2F1, Q01094 (Q01094 whole entry): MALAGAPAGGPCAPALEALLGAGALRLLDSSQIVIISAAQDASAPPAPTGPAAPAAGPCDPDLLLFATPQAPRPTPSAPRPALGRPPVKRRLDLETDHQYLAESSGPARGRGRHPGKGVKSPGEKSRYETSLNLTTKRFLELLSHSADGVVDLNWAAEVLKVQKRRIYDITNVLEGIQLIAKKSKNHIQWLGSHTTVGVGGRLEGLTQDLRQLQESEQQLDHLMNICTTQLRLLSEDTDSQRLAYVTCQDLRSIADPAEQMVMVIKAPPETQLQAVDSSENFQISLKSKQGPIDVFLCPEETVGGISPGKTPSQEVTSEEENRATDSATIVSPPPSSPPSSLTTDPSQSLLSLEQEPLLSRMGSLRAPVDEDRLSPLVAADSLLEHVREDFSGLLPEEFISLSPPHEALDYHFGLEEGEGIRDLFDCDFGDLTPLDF

Row | Variant | effect of a mutation on the interaction
1 | R467A | decreasing interaction strength
2 | F482A | decreasing interaction strength
3 | E554A | decreasing interaction strength
4 | K653A | decreasing interaction strength
